What all share (conditions): remark: other sources report otherwise
Experiment [1] addresses recombinant soluble homotrimeric HA of A/Common magpie/Hong Kong/5052/07 - H5N1 (Influenza A virus A/common magpie/Hong Kong/5052/2007 (H5N1)). The experiment in a line: micro-array; captured IgG, V5-tagged trimeric HA.
Experiment [2] has as its target recombinant soluble homotrimeric HA of A/common magpie/Hong Kong/5052/07 (H5N1) (Influenza A virus A/common magpie/Hong Kong/5052/07 (H5N1)). The experiment in a line: microarray, BCC supernatant IgG, trimeric HA.
The target of experiment [3] is Hemagglutinin of influenza A/Japan/305/57 (H2N2), on inactivated whole virions (Influenza A virus A/Japan/305/1957 (H2N2)), P03451. The experiment can be described thus: ELISA, B cell culture supernatant on inactivated whole virions. For orientation: In an ELISA, binding on a coated surface is turned into a signal by an enzyme label.

B1: TCN-539 (5056_A08) (antibody, V domains shown)
VH: QVQLVESGGGVVQPGRSLRLSCAASEITFITYAMHWVRQAPGKGLEWVALISDDGSNKFYADSVKGRFTISRDNSKNTLYLQMNSLRAEDTAAYYCAREGVYFDSGTYRGYFDYWGQETLVTVSS
VL: EIVLTQSPATLSLSPGERATLSCRASQSVSSYLAWYQQKPGQAPRLLIYDASNRATGIPARFSGSGSGTDFTLTISSLEPEDFAVYYCQQRSHWPPITFGQGTRLEIK
In the case of B1, the Trimeric HA Binding: RLU in experiment [1] came to 1440 RLU.

B2: TCN-533 (5256_A17) (antibody, V domains shown)
VH: QVQLVQSGADVKKPGSSVTVSCKASGGSFSNYGINWVRQAPGQGLEWMGGIIPLINAPNYAPKFQGRVTITADMFSNIVSLQLTSLRTDDTAVYYCARRKMTTAIDYWGQGTLVTVSS
VL: QPVLSQPPSASASLGASVTLTCTLSSGFDNYQVAWYQQRPGKGPRFVMRVGNGGNVASKGDGIPDRFSVSGSGLNRYLTIKNIQEDDESDYYCGADHGSGNNFVSPYVFGGGTKLTVL
Consider B2, for which the Trimeric HA Binding: RLU in experiment [2] was determined as 44500 RLU.

B3: TCN-551 (5243_D01) (antibody, V domains shown)
VH: EVQLVQSGSEVKKPGESLKISCKGSGYSFSNYWIGWVRHMPGKGLEWMGIIYPGDSDTRYSPSFQGQVTMSADKSSSTVYLQWSSLKASDTAIYYCARRGGHSFGYGSGGDTHSEFDSWGQGTLVTVSS
VL: QSVLTQSPSVSAAPGQKVTISCSGSDSNIGDYFVCWYQHLPGKPPQLLIYENNKRPSGIPDRFSGSKSGTSATLGITGIQTGDEADYYCATWDGSLSAWVFGGGTKLTVL
B3 yielded an OD450 in experiment [3] of 0.19 OD450.

B4: TCN-542 (5079_A16) (antibody, V domains shown)
VH: QVQLQESGPGLVKPSQTLSLTCTVSGGSISSGNYYWNWVRQHPGKGLEWIGYIYYRGSTFYNPSLKSRVTISIDTSKNQFSLRLSSVTAADTAVYYCAKDTRSSLDNYQYGMDVWGQGTTVTVSS
VL: QTVVTQEPSLTVSPGGTVTLTCASSTGAVTSSYFPNWFQQKPGQAPRPLIYSTTIRHSWTPARFSGSLLGGKAALTLSGVQPEDEADYYCLLYSGGDPVAFGGGTKLTVL
On to B4, for which the Trimeric HA Binding: RLU in experiment [1] is 1670 RLU.

The values above are taken from patent US20120207760A1.
